This passage reports IC50 and Kd results from patent US20240425603A1 (Janssen / Centocor, published 2024).

Where “and” joins values, the source holds several entries; their conditions need not be identical. Equal entries are not always repeated.

For test [1], the target named is T1, Recombinant human VEGFR1-Fc (R&D Systems) (human, UniProt P17948 27-687, limits assumed).
T1 construct: bought; not shown: Fc part of the bought fusion, not described
The test is described as follows: biochemical ligand blocking assay; ligand and receptor form not given. An outline of the steps:
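IC50 values come from a biochemical electro-chemiluminescence ligand blocking assay. Recombinant VEGFR1-Fc, captured on Protein A/G-coated MSD plates, was pre-incubated for 30 minutes with half-log antibody dilutions before biotinylated ligand was added and then detected on an MSD imager using Sulfo-tagged streptavidin.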

Test [2] addresses T2, rat VEGFR1 (soluble antigen of the KinExA and SPR affinity assays) (rat, UniProt P53767 23-758, limits assumed).
T2 sequence (looked up): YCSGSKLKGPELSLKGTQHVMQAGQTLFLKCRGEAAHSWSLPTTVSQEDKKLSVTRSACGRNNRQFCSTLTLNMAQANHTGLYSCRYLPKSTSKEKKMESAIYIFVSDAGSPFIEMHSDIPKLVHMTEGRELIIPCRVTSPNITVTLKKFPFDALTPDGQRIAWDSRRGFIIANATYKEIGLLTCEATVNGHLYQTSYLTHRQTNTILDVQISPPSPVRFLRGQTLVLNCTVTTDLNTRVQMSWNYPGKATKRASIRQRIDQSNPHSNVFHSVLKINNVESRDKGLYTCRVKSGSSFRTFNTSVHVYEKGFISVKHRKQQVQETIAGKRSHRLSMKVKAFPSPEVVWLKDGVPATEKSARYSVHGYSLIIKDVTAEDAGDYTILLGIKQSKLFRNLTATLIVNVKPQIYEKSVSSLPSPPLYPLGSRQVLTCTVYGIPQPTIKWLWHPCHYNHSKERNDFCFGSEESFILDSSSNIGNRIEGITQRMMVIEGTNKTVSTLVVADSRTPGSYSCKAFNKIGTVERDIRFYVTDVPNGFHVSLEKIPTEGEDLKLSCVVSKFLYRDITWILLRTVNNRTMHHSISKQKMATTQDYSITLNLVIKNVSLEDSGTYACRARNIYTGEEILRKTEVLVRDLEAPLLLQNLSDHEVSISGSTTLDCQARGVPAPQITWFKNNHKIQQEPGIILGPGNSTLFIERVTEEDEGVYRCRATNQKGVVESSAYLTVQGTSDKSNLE
Kind of test: SPR. (In SPR one partner is held on a chip, and binding of the other changes the refractive index at the surface.)

Test [3] has as its target human VEGFR1 (soluble antigen of the KinExA and SPR affinity assays) (human, UniProt P17948 27-758, limits assumed). Kind of test: SPR.

Sequence of human VEGFR1 (soluble antigen of the KinExA and SPR affinity assays) (P17948 27-758 limits assumed): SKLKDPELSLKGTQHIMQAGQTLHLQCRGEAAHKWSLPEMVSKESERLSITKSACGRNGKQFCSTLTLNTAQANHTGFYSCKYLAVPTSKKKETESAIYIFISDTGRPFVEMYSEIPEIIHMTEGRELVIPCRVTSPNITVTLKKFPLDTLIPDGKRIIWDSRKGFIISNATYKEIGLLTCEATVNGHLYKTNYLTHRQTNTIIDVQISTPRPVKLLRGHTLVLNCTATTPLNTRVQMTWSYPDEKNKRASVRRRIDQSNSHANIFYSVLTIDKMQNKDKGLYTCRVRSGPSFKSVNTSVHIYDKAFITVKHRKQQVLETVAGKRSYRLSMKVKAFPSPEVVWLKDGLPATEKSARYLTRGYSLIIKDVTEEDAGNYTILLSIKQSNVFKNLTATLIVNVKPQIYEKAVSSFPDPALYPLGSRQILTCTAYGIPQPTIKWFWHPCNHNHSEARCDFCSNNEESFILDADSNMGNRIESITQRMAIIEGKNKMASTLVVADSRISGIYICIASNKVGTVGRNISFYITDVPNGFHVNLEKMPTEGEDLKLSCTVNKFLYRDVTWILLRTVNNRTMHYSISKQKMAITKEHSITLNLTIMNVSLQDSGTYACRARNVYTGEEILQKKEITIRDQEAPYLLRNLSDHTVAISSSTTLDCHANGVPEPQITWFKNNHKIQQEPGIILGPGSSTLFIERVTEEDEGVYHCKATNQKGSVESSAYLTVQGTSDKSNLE
T1 sequence (P17948 27-687 limits assumed): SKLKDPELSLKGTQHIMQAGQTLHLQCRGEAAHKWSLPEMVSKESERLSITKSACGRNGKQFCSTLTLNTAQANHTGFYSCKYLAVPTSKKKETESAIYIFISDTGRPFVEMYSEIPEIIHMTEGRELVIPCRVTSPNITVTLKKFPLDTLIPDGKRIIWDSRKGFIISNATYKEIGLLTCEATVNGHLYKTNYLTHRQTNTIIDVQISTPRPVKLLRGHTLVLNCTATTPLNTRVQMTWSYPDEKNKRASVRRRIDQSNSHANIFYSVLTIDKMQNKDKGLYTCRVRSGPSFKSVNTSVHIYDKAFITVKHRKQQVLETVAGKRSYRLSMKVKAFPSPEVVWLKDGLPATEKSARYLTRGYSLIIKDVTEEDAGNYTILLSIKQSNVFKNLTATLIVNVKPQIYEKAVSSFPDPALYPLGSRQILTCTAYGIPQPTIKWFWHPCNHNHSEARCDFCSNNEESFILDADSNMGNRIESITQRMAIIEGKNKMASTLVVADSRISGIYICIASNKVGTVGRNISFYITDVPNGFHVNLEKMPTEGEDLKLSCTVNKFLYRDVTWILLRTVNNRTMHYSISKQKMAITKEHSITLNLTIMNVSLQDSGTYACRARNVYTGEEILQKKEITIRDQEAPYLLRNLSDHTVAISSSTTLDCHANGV

B1: VGFB54 (antibody, human IgG1, lambda, L234A L235A, V domains shown)
VH: EVQLLESGGGSVQPGGSLRLSCTASGFNFEDYGMNWVRQAPGKGLDWVSSINRNGDISTYHVDSVKGRFTISRDNSKNTLYLQMNSLRAEDTAIYYCTKNHDYHGMDVWGQGTTVTVSS
VL: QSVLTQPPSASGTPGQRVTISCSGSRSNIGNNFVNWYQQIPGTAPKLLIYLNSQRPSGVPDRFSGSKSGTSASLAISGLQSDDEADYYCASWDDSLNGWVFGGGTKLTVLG
notes: human IgG1 (L234A/L235A/D265S), lambda, 2H:2L; from OmniChicken
The term IC50 denotes the midpoint of a concentration-inhibition curve. Turning to B1, the IC50 in test [1] amounted to 89.4 pM.

B2: VGFB82 (antibody, human IgG1, lambda, L234A L235A, V domains shown)
VH: EVQLLESGGGLVQPGGSLRLSCEASGFDFSTYAMNWVRQAPGKGLEWVATINSEGTITSHAPAVKGRFTISRDNSKNTAYVQMNSLRAEDSAVYYCSSTTGTTHGMDVWGRGTTVTVSS
VL: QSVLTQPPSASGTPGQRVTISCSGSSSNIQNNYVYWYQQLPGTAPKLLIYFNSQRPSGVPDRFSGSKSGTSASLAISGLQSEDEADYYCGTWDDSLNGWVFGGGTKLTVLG
notes: human IgG1 (L234A/L235A/D265S)
A word on the Kd: it is the concentration at which binding is half-saturated. Low values mean tighter binding, high ones weaker binding. Take B2: the Kd in test [2] is 600 to 1000 pM; in test [3], 10 pM and < 6 pM.
